Target: T1, CCDC103 (wildtype), N-terminal His10 tagged (H. sapiens), Q8IW40
T1 chain: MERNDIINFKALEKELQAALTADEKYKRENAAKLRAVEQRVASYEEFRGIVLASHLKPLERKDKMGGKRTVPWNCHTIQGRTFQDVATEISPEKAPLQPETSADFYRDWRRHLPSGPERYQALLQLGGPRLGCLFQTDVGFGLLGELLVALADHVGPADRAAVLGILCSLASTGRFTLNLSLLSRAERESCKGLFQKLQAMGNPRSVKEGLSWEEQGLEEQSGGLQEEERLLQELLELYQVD
Assay: SEC
Conditions: remark: other sources report otherwise

B1: CCDC103 (wildtype), N-terminal His10 tagged, Q8IW40 1-242 (natural protein)
chain: T1 chain
**Q.** How did the stoichiometry N turn out when B1 was run?
**A.** The stoichiometry N was 2.
